Experimental data: publication PMC8570342, “Identification of an Isoflavonoid Transporter Required for the Nodule Establishment of the Rhizobium-Fabaceae Symbiotic Interaction” (Frontiers in Plant Science, 2021)

Substrate: O=c1c(-c2ccc(O)cc2)coc2cc(O)cc(O)c12
Experiment: 3H-genistein uptake into yeast microsomal vesicles, rapid filtration, Hanes-Woolf plot
Type: biochemical, Lupinus albus
Details: labelled compound, 5 mM ATP, 10 mM MgCl2, 0.1 M KCl, pH 7.4, 30 s, empty-vector uptake subtracted, proton-driven
From the text: 3H-genistein uptake into yeast microsomal vesicles, rapid filtration, Hanes-Woolf plot on LaMATE2 | LaMATE2 mediates an efficient transport of genistein which was characterized by a saturable kinetic

B1: LaMATE2 (Lupinus albus) (protein)
chain: MEESLIPKQVEQKTERYNEEKQKHKVTWNSFSEEMKRICVVAGPMVIVISSQYLLQVVSTMMVGHLGELYLSSAALAISLSSVTGFSLIMGMASGLETICGQAFGGKQYKRIGTQTYTAILSLTLVSFVLSLLWINMERILVFIGQDPLIAHESGKFIIWLIPALFAYAIMQPLVRYFQMQSLLFPMLISSLVALCIHIPLCWALVYKTRLHNVGGALALGISNWSNVIFLALYMRYSSACAKTRAPISMELFHGIWEFFRFAVPSALMICLEWWSFELLVLLSGLLPNPQLETSVLSVCLNTISTLYTIPFGIGAAASTRVSNELGAGNPHTARIAVLAAMSLAVLETCVVTGTLFACRHIFGYIFSNEKEVVDYVTLMAPLVCISVILDSLQGVLTGIARGCGWQHLGVYVNLGAFYLLGIPAAATLAFWFKLRGKGLWIGIQVGSFVQTLLLSIITSGINWEQQANKAKYRLLEDESSAENSLA
notes: full ORF in pNEV, no tag stated; expressed in Saccharomyces cerevisiae YPH499, microsomal membrane vesicles; 12 predicted transmembrane helices
- Km: 16.2 µM
